Where a chain is given by its changes, count along the chain named.

The values that follow come from patent publication US20230406942A1 (HORIZON THERAPEUTICS IRELAND DAC, published 2023).

For test [1], the target named is T1, IGF-1R on NCI-H322 cells (UniProt P08069 31-1367, limits assumed). The test can be described thus: cell-based or functional assay.
The target of test [2] is T1, IGF-1R on NCI-H322 cells. The experiment in a line: cell-based or functional assay. This is another data set of the same source.
The target in test [3] is T2, IGF-1R (coated on Maxisorp plates) (UniProt P08069 31-932, limits assumed).
T2 construct: also called the receptor
T2 sequence (P08069 31-932 limits assumed): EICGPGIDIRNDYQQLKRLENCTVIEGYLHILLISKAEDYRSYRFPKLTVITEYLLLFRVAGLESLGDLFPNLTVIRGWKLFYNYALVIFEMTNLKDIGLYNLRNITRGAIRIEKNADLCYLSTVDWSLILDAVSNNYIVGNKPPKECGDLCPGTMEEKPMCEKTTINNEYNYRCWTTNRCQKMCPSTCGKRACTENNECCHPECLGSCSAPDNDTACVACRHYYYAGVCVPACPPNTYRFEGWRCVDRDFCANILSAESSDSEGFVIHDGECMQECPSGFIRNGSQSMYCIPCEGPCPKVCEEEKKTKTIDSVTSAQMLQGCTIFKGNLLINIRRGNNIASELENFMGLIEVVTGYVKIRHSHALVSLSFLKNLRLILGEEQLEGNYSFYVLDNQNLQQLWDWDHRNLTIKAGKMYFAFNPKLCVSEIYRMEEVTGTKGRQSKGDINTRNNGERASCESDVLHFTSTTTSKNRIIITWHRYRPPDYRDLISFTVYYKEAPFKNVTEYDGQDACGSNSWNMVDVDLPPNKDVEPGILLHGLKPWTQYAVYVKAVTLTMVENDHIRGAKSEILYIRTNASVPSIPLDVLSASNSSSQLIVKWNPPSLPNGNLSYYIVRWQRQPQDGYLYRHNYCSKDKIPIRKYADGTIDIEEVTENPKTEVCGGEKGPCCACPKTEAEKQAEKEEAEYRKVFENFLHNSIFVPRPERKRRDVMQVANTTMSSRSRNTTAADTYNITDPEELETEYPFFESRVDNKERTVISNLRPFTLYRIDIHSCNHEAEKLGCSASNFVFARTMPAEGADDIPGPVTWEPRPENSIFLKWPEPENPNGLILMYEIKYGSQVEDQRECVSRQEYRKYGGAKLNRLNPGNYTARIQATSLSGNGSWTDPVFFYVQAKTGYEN
The test can be described thus: competition ELISA, plate-coated IGF-1R, antibody titrated against 200 ng/mL IGF-2 biotin. The protocol:
(§1) Maxisorp plates were coated with 1.5 ug/mL of IGF-1R overnight at 4° C. Plates were washed and blocked with 1% BSA. Subsequently, serially diluted anti-IGF1R antibodies were incubated for 30 min at room temperature followed by an incubation with a final concentration of 200 ng/mL of IGF-2 biotin. Plates were washed and streptavidin-horseradish peroxidase was added. After a final wash, 3,3′,5,5′-Tetramethylbenzidine was added for 8 minutes. The reaction was terminated with a HCL based stop solution. Plates were measured for absorbance at 450 nm, and the data was analyzed using Softmax Pro 7.1 software.

Test [4] deals with T2, IGF-1R (coated on Maxisorp plates). The test can be described thus: competition ELISA, plate-coated IGF-1R, antibody titrated against 20 ng/mL IGF-1 biotin. On the procedure:
as §1, with “20” for “200”, “IGF-1” for “of IGF-2”

T1 sequence (P08069 31-1367 limits assumed): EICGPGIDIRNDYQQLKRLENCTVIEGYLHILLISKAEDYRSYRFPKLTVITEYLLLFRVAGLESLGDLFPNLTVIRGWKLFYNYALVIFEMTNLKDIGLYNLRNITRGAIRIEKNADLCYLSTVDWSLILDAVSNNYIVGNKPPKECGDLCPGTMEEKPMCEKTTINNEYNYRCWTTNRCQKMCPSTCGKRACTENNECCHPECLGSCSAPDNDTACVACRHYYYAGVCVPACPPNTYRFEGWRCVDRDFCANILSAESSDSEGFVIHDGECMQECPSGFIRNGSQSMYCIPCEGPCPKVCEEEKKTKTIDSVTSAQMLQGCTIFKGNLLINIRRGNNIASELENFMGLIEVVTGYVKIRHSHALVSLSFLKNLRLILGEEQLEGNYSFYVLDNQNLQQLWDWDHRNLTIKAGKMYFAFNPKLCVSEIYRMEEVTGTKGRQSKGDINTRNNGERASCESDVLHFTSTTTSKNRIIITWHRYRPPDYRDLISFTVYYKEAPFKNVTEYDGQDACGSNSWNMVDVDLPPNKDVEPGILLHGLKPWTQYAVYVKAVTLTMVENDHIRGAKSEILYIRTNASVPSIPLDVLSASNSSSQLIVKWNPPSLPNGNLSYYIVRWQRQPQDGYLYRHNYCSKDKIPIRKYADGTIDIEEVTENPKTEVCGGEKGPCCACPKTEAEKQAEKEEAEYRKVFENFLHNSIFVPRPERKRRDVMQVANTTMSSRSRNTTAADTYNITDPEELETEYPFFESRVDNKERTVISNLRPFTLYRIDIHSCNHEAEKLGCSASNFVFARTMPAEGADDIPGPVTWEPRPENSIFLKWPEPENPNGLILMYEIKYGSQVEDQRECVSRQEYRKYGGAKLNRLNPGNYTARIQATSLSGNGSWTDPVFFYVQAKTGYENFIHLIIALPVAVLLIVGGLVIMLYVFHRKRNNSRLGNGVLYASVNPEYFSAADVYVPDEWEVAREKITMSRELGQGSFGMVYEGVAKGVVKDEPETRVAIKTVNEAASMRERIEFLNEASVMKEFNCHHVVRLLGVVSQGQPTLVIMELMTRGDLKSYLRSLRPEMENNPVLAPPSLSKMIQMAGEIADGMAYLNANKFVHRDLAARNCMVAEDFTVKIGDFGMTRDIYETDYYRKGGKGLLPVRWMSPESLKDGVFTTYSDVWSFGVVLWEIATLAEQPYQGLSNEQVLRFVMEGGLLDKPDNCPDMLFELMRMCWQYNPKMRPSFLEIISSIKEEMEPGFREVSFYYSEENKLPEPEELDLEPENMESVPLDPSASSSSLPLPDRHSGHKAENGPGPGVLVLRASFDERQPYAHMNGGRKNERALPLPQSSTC

B1: Teprotumumab reference antibody (antibody, V domains shown)
VH: QVELVESGGGVVQPGRSQRLSCAASGFTFSSYGMHWVRQAPGKGLEWVAIIWFDGSSTYYADSVRGRFTISRDNSKNTLYLQMNSLRAEDTAVYFCARELGRRYFDLWGRGTLVSVSS
VL: EIVLTQSPATLSLSPGERATLSCRASQSVSSYLAWYQQKPGQAPRLLIYDASKRATGIPARFSGSGSGTDFTLTISSLEPEDFAVYYCQQRSKWPPWTFGQGTKVESK
As to B1, the “Inhibition of Phosphorylation IC50” value in test [1] was 0.0106 µg/mL. The “IC50 of inhibition of IGF-1R phosphorylation” value in test [2] was 0.397 µg/mL.

B2: D03-YTE (antibody, V domains shown)
VH: B1 VH with Y32H, I50Y
VL: B1 VL with Y32A, W94Y
In the case of B2, in test [2], the “IC50 of inhibition of IGF-1R phosphorylation” value was 0.0205 µg/mL.

B3: H11 antibody (antibody, V domains shown)
VH: B1 VH with I50T, F53H
VL: B1 VL with Y32A, S92G, W94Y
notes: Whole antibody
As for B3, the IC50 in test [3] worked out at 0.157 µg/mL; in test [4] it was 0.452 µg/mL. In addition, the “Inhibition of Phosphorylation IC50” value in test [1] worked out at 0.0211 µg/mL.

B4: B10 antibody (antibody, V domains shown)
VH: B1 VH with I50T
VL: B1 VL with W94Y
notes: Whole antibody
Turning to B4, the IC50 in test [3] turned out to be 0.176 µg/mL; in test [4] it was 0.395 µg/mL. Further, in test [1], the “Inhibition of Phosphorylation IC50” value was found to be 0.0162 µg/mL.

B5: E01 antibody (antibody, V domains shown)
VH: B1 VH
VL: B1 VL with W94Y
notes: Whole antibody
Regarding B5, the results for the IC50 in test [3] and in test [4] were 0.141 µg/mL and 0.388 µg/mL, respectively. For the same molecule, the “Inhibition of Phosphorylation IC50” value in test [1] is 0.0064 µg/mL.

B6: D03 antibody (antibody, V domains shown)
VH: B1 VH with Y32H, I50Y
VL: B1 VL with Y32A, W94Y
notes: Whole antibody; also called clone D03
As for B6, the IC50 was found to be 0.161 µg/mL in test [3] and 0.388 µg/mL in test [4]. In addition, the “Inhibition of Phosphorylation IC50” value in test [1] is 0.0049 µg/mL.
